Test results: publication PMC5775921 (Chemical biology & drug design, 2017)
Ends that are not written are not given here.

Assays:
HER3 = HER3 (UniProt P21860); assay: SPR
[1] = target: recombinant extracellular domain of EGFR protein (Homo sapiens, UniProt P00533); assay: SPR binding to immobilized EGFR extracellular domain; conditions: peptide 0 to 200 μM as analyte

Sequence of HER3 (P21860 20-1342): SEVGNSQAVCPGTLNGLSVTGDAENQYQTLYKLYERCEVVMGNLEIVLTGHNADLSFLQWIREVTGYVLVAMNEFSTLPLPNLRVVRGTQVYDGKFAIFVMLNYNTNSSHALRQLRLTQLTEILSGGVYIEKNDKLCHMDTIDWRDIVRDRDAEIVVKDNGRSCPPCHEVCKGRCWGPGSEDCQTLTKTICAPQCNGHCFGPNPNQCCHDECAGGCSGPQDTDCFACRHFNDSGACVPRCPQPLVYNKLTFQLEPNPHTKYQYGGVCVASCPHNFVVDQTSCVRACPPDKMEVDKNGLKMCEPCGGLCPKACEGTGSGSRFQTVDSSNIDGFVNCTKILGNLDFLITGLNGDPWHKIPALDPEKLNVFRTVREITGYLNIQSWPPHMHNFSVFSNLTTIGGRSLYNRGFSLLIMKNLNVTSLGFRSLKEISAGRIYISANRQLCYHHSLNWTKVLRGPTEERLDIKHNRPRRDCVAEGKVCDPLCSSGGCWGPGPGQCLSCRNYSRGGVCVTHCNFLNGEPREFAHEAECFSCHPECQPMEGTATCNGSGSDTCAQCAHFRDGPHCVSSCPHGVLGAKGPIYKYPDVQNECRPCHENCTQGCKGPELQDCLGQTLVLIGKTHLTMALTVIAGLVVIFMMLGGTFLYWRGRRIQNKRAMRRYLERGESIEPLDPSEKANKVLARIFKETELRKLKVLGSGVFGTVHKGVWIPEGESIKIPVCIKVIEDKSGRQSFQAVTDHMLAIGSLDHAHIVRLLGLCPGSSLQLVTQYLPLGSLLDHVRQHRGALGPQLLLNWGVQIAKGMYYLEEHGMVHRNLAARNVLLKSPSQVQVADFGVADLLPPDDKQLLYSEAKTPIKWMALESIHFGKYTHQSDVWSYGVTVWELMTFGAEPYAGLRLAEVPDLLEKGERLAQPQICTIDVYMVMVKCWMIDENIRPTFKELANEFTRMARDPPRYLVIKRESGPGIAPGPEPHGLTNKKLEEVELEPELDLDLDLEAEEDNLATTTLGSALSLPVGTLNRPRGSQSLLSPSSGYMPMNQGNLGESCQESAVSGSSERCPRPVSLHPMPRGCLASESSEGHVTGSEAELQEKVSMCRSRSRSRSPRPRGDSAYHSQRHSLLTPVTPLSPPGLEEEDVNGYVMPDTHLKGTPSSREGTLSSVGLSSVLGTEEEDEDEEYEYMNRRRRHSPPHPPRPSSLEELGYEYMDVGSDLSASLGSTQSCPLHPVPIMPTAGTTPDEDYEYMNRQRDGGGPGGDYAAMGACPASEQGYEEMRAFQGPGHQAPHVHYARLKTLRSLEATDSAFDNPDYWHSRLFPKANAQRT

| Substance | Kd (HER3) | binding to EGFR as seen by SPR [1] |
| --- | --- | --- |
| Cyclo.L1.1: Cyclo(K(N3)larllt) (peptide) | 50 µM | – |
| GLARLLT-CONH2 (GLARLLT-NH2) [Peptide L1.6] | – | exhibited binding to the EGFR protein in a concentration-dependent manner |
| tllarl-CONH2 [Peptide L1.3] | – | exhibited binding to the EGFR protein in a concentration-dependent manner |
